Laboratory results as given in patent publication US20230139700A1 (BIO THERA SOLUTIONS, published 2023).
Positions count from the first letter of the chain named.

T1: hOX40-his (human, UniProt P43489 29-216)
T1 construct: range 1-216; Made in HEK293; The stated range starts at residue 1 (holds the signal peptide of the entry); no cleavage site stated; not shown: his tag
T1 sequence (looked up): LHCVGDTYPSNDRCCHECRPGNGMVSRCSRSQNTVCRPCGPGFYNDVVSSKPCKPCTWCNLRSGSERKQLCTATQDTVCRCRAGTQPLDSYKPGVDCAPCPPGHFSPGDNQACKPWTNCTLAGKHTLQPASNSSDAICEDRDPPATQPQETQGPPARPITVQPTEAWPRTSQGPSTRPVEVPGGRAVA

T2: human OX40 on cells (human, UniProt P43489 29-277)
T2 construct: whole, on cells; the cell is named under assay; also called hOX40; Jurkat-hOX40 cells
T2 sequence (looked up): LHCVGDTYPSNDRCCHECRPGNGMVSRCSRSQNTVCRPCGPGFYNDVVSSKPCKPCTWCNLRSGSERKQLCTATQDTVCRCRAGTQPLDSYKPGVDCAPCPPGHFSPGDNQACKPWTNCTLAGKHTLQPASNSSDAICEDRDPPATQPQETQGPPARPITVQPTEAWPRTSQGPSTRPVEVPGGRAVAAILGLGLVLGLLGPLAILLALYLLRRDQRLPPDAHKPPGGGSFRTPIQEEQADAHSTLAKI

T3: hOX40-FC (human, UniProt P43489 29-216)
T3 construct: range 1-216; Made in HEK293; The stated range 1-216 starts at residue 1, so it holds the signal peptide of the entry; also called human OX40 extracellular region fused to human IgG1-Fc; not shown: human IgG1-Fc, UniProt P01857, residues 104 to 330
T3 sequence (looked up): T1 sequence (looked up)

B1: Antibody M (antibody, human IgG1, kappa, V domains shown)
VH: QVQLVESGGGVVQPGESLRLSCAASGFTFSSYGMHWVRQAPGKGLEWVAVIWEDGSNQYYADSVKGRFTISRDNSKNTLYLQMNSLRAEDTAVYYCAKDNQDTSPDVGIDYWGQGTLVTVSS
VL: DIQMTQSPSSLSASVGDRVTITCRASQNISPFLNWYQQKPGKAPKLLIYAAVGLQSGVPSRFSGSGSGTDFTLTISSLQPEDFATYYCQQYTDYPLTFGGGTKVEIKR
notes: also called antibody No. 12; anti-OX40 antibody (antibody M)
B2: WEST + TD (antibody, human IgG1, kappa, V domains shown)
VH: B1 VH with V5E
VL: B1 VL with R18T, V52S, G53S
B3: WEST + VG (antibody, human IgG1, kappa, V domains shown)
VH: B1 VH with V5E
VL: B1 VL with R18T, T92N, D93S
B4: VH + VGTD (antibody, human IgG1, kappa, V domains shown)
VH: B1 VH with V5E, W52S, E53Y, T103S
VL: B1 VL with R18T
B5: T + VG (antibody, human IgG1, kappa, V domains shown)
VH: B1 VH with V5E, W52S, E53Y
VL: B1 VL with R18T, T92N, D93S
B6: T + TD (antibody, human IgG1, kappa, V domains shown)
VH: B1 VH with V5E, W52S, E53Y
VL: B1 VL with R18T, V52S, G53S
B7: T + VGL + TD (antibody, human IgG1, kappa, V domains shown)
VH: B1 VH with V5E, W52S, E53Y
VL: B1 VL with R18T
B8: WEST + VL (antibody, human IgG1, kappa, V domains shown)
VH: B1 VH with V5E
VL: B1 VL with R18T, V52S, G53S, T92N, D93S
B9: 11D4 (antibody, V domains shown)
VH: EVQLVESGGGLVQPGGSLRLSCAASGFTFSSYSMNWVRQAPGKGLEWVSYISSSSSTIDYADSVKGRFTISRDNAKNSLYLQMNSLRDEDTAVYYCARESGWYLFDYWGQGTLVTVSS
VL: DIQMTQSPSSLSASVGDRVTITCRASQGISSWLAWYQQKPEKAPKSLIYAASSLQSGVPSRFSGSGSGTDFTLTISSLQPEDFATYYCQQYNSYPPTFGGGTKVEIKR
B10: Antibody-F23-4k (antibody, human IgG1, kappa, V domains shown)
VH: B1 VH with V5E, W52S, E53Y, T103S
VL: DIVMTQSPSSLSASVGDRVTITCRASQDILGYVNWYQQKPGKAPILLIYATSGLQGGVPSRFSGSGSGTDFTLTISSLQPEDFATYYCQQYNSYPLTFGGGTKVDIKR
notes: also called antibody No. 4
B11: Antibody-A6-1k (antibody, human IgG1, kappa, V domains shown)
VH: QVQLQRSGGGLVQPGGSLRLSCAASGFTFSSYGMTWVRQAPGKGLEWVSAISNSGGSTYYADSVKGRFTISRDNSKNTLYLQMNSLRAEDTAVYYCAKDGPYFDYWGQGTLVTVSS
VL: DIQMTQSPSTLSASVGDRVTITCRVSQGIGDDLGWYQQKPGKAPKLLIYKASNLESGVPSRFSGSGSGTDFSLTISSLQPEDFATYFCQQAHSFPPTFGGGTKLEIKR
notes: also called Antibody-A6-lk; antibody No. 7
B12: Antibody-F15-1L (antibody, human IgG1, kappa, V domains shown)
VH: QVQLRESGGGLVQPGGSLRLSCAASGFTFSSYAMNWVRQAPGKGLEWVSAISGSGGNTYYADSVKGRLTISRDNSKNTLYLQMNSLRAEDTAVYYCAKDPLGSSWFEYFQHWGQGTLVTVSS
VL: QSALTQPASVSGSPGQSITISCTGTSSDVGGYNYVSWYQKHPGKAPKLMIYEVSNRPSGVSNRFSGSKSANTASLTISGLQAEDEADYFCSSYSSSSTLVVFGGGTKLTVLR
notes: also called Antibody-F15-IL; antibody No. 3
B13: Antibody-M5-5k (antibody, human IgG1, kappa, V domains shown)
VH: QVQLVESGGGLIQPGGSLRLSCTASGFTFSTYAMSWVRQAPGKGLEWVSAISGTGDWASYADSVKGRFTTSRDNSRNTLYLQMNNLRDEDTAIYYCAKSSSTVATDFDYGMDVWGQGTLVTVSS
VL: ETTLTQSPSTLSASVGDRVTITCRASEEIGSWLAWYQQTPGKAPKRLIYEASSLQSGVPSRFSGSGSGTDFTLTISSLQPEDFATYYCQQYGSYPPTFGQGTKVEIKR
notes: also called antibody No. 8
B14: Antibody-M5-7k (antibody, human IgG1, kappa, V domains shown)
VH: B13 VH
VL: DIVMTQSPSTLSASVGDRVTVTCRASEDIGRWLAWYQQKPGKAPKRLIYAASSLQSGVPSRFSGSGSGTEFTLTISSLQPEDFATYYCQQYYNYPPTFGQGTKVEIKR
notes: also called antibody No. 9
B15: Antibody-X35-6L (antibody, human IgG1, kappa, V domains shown)
VH: EVQLVESGGGLVQPGRSLRLSCAASGFTFDDYAMHWVRQAPGRGLEWVSGIGGSGGSTYYADSVKGRFTISRDNSKNTLYLQMNGLGAEDTAVYYCAKDRGYGDYYWYFDLWGRGTLVTVSS
VL: SSELTQPASVSGSPGQSITISCTGTSSDVGGYNYVSWYQQHPGKAPKLMIYDVSNRPSGVSNRFSGSKSGNTASLTISGLQAEDEADYYCSSYTTSSTLVFGGGTKVTVLR
notes: also called antibody No. 2
B16: Antibody-F23-7k (antibody, human IgG1, kappa, V domains shown)
VH: B1 VH with V5E, W52S, E53Y, T103S
VL: B9 VL with G28S, W32Y, A34N, E41G, S46L, I48M, Q89L, Y91I, N92D, P96L
notes: also called antibody No. 5
B17: Antibody-A2 (antibody, human IgG1, kappa, V domains shown)
VH: QVQLVESGGGLIQPGGSLRLSCAASGFTVSSNYMSWVRQAPGEGLEWIATIYYGGSTYYNPSLKSRVTISADMSKNQFSLKLSSMTAADTAVYYCARVVVPGYFDLWGRGTLVTVSS
VL: SSELTQDPAVSVALGQTVSITCQGDSLRSYYASWYQQKPGQAPVPVIYGKNNRPSGIPDRFSGSSSGNTASLTITGAQAEDEADYYCHSRDSSGKYVFGVGTKLTVLR
notes: also called antibody No. 11
B18: Antibody-FE-16H (antibody, human IgG1, kappa, V domains shown)
VH: QVQLVESGGGLVQPGGSLRLSCAASGFTFSSYAMSWVRQAPGKGLEWVSAISGSGGSTYYADSVKGRFTISRDNSKNSLYLQMNSLRAEDTAVYYCARGDSSSWFIFQDWGQGTLVTVSS
VL: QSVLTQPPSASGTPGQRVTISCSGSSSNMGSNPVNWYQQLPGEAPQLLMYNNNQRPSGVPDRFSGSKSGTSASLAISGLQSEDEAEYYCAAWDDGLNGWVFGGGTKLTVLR
notes: also called antibody No. 10

Molecular target: T1, hOX40-his
Test: BIACORE, antibody on the probe, 20 nM OX40-his
From the text: (§1) Table 10 illustrates the CDRs of eight full antibodies containing these amino acid mutations, and the rest of the sequences are the same as those of antibody-F23-32K. […] The sequences of the anti-OX40 antibody (antibody M) are shown in Table 12; wherein, the expression cells used for the antibodies above (including antibody M) are CHO-S cells, and the method for preparing the antibody M-KF is as follows: the antibody M was identical to the antibody M-KF in terms of amino acid sequence and was expressed by the CHO cell line in which the fut8 gene was knocked out (the content of fucose in antibody M-KF was about 0%).

**Q.** Which results are given for B1?
**A.** Kd: 0.16 nM; fold higher affinity than 11D4: ~9 fold; fold higher affinity than OX40mAb24: ~21 fold; fold increase of affinity (against antibody-F23-32K): ~70 fold; koff: 9.77e-05 s⁻¹; kon: 610000 M⁻¹ s⁻¹

**Q.** For B2, which Kd is on record?
**A.** 0.653 nM

**Q.** And the koff?
**A.** 0.000321 s⁻¹

**Q.** And the kon?
**A.** 491000 M⁻¹ s⁻¹

**Q.** Which Kd does the source give for B3 here?
**A.** 0.77 nM

**Q.** What about the koff of the same binder?
**A.** 0.000348 s⁻¹

**Q.** What about the kon of the same binder?
**A.** 452000 M⁻¹ s⁻¹

**Q.** What does the source list for B4?
**A.** Kd: 0.565 nM; koff: 0.000243 s⁻¹; kon: 431000 M⁻¹ s⁻¹

**Q.** What does the source list for B5?
**A.** Kd: 4.54 nM; koff: 0.00133 s⁻¹; kon: 292000 M⁻¹ s⁻¹

**Q.** B6 was tested. Which Kd did it give?
**A.** 5.01 nM

**Q.** What about the koff of the same binder?
**A.** 0.00139 s⁻¹

**Q.** What about the kon of the same binder?
**A.** 278000 M⁻¹ s⁻¹

**Q.** What does the source list for B7?
**A.** Kd: 0.266 nM; koff: 0.000119 s⁻¹; kon: 448000 M⁻¹ s⁻¹

**Q.** For B8, which Kd is on record?
**A.** 1.93 nM

**Q.** What about the koff of the same binder?
**A.** 0.000714 s⁻¹

**Q.** And the kon?
**A.** 371000 M⁻¹ s⁻¹

**Q.** What does the source list for B9?
**A.** Kd: 1.31 nM; koff: 0.000461 s⁻¹; kon: 353000 M⁻¹ s⁻¹

Molecular target: T2, human OX40 on cells
Test: flow cytometry (MFI) on Jurkat cells overexpressing OX40, antibody titration; the unit nM comes from the legend paragraph 95
From the text: as §1

**Q.** For B1, which EC50 is on record?
**A.** 1.2 nM

**Q.** For B9, which EC50 is on record?
**A.** 1.17 nM

Molecular target: T2, human OX40 on cells
Test: flow cytometry (MFI) on Jurkat cells overexpressing OX40, antibody titration
From the text: as §1

**Q.** With B1 as the binder, how does the “EC50 (read off the curve)” value read?
**A.** ~1 nM

**Q.** Which “EC50 (read off the curve)” value does the source give for B9 here?
**A.** ~1 nM

Molecular target: T2, human OX40 on cells
Test: cell-based or functional assay

**Q.** With B1 as the binder, how does the “NFκB reporter in Jurkat-hOX40-NFκB-2 cells with Raji cells, activation peak against 11D4” value read?
**A.** ~2.5 fold

Molecular target: T2, human OX40 on cells
Test: flow cytometry on Jurkat-hOX40 cells, 3-fold dilutions from 50 nM, MFI
Method: Antibody-F23-4k and antibody-F23-32k, as well as two control antibodies 11D4 and OX40mAb24 at different concentrations were used to incubate Jurkat-hOX40 cells.

**Q.** B10 was tested. Which EC50 did it give?
**A.** 1.5 nM

**Q.** Which EC50 does the source give for B9 here?
**A.** 1.5 nM

Molecular target: T3, hOX40-FC
Test: BLI (ForteBio), biotinylated antibody on SA sensor, OX40-Fc 50 nM bivalent, 1:1 model
Method: The ForteBio affinity assay was conducted according to the existing conventional method (Estep, P et al., MAbs, 2013, 5(2): 270-8). The brief process is as follows: the sensor was equilibrated offline in an assay buffer (such as PBS) for 20 min and then subjected to online test for 60 s to establish a signal baseline. The purified antibodies obtained as described above were each loaded online onto a corresponding sensor (ForteBio), and finally the ForteBio affinity assay was conducted. The biotinylated candidate antibodies were adsorbed with the SA sensor, and binding and dissociation of hOX40-FC were each detected for about 5 min. The results are shown in Table 4, and N.D indicates not detected in Table 4. Finally, kinetic analysis was performed for all by using a 1:1 binding model.

**Q.** Which Kd does the source give for B11 here?
**A.** 4 nM

**Q.** B12 was tested. Which Kd did it give?
**A.** 3 nM

**Q.** How did the Kd turn out when B13 was run?
**A.** 2 nM

**Q.** For B14, which Kd is on record?
**A.** 0.4 nM

**Q.** With B15 as the binder, how does the Kd read?
**A.** < 0.1 nM

**Q.** B10 was tested. Which Kd did it give?
**A.** 0.6 nM

**Q.** With B16 as the binder, how does the Kd read?
**A.** 2 nM

**Q.** With B17 as the binder, how does the Kd read?
**A.** 9 nM

**Q.** How did the Kd turn out when B18 was run?
**A.** 3 nM
